Measured values reported in US20260242492A1 (JOINT STOCK COMPANY BIOCAD, published 2026).

T1: biotinylated peptide [NH2]CEPANPSEKNSPSTQYCYSIQS[CH2CH2]biotin comprising a fragment of the human CD20 … (human, [NH2] at the N-terminus; [CH2CH2]biotin at the C-terminus (so in the source))
T1 construct: Immobilized on streptavidin (SAX) sensors; also called CD20 peptide
T1 peptide: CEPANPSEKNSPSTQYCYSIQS

B1: antibody-like molecule 08-001 (binds PD1 and CD20) (bispecific antibody, human IgG1, kappa, L234A L235A)
heavy 1: QVQLVQSGGGLVQPGGSLRLSCAASGFTFSSYWMYWVRQVPGKGLEWVSAIDTGGGRTYYADSVKGRFAISRVNAKNTMYLQMNSLRAEDTAVYYCARDEGGGTGWGVLKDWPYGLDAWGQGTLVTVSSASTKGPSVFPLAPSSKSTSGGTAALGCLVKDYFPEPVTVSWNSGALTSGVHTFPAVLQSSGLYSLSSVVTVPSSSLGTQTYICNVNHKPSNTKVDKRVEPKSCDKTHTCPPCPAPEAAGGPSVFLFPPKPKDTLYITREPEVTCVVVDVSHEDPEVKFNWYVDGVEVHNAKTKPREEQYNSTYRVVSVLTVLHQDWLNGKEYKCKVSNKALPAPIEKTISKAKGQPREPQVCTLPPSRDELTKNQVSLSCAVKGFYPSDIAVEWESNGQPENNYKTTPPVLDSDGSFFLVSKLTVDKSRWQQGNVFSCSVMHEALHNHYTQKSLSLSPGK
light 1: QPVLTQPLSVSVALGQTARITCGGNNIGSKNVHWYQQKPGQAPVLVIYRDSNRPSGIPERFSGSNSGNTATLTISRAQAGDEADYYCQVWDSSTAVFGTGTKLTVLQRTVAAPSVFIFPPSDEQLKSGTASVVCLLNNFYPREAKVQWKVDNALQSGNSQESVTEQDSKDSTYSLSSTLTLSKADYEKHKVYACEVTHQGLSSPVTKSFNRGEC
heavy 2: not shown
light 2: DIQMTQSPSSLSASVGDRVTITCRASSSVSYMHWYQQKPGKAPKPLIYAPSNLASGVPSRFSGSGSGTDFTLTISSLQPEDFATYYCQQWSFNPPTFGQGTKVEIKQRQVKPEAWLSKGPSPGPGRLQLVCHVSGFYPKPVWVMWMRGEQEQQGTQLGDILPNADWTWYLRATLDVADGEAAGLSCRVKHSSLEGQDIILYWRGSC
B2: antibody-like molecule 08-003 (binds PD1 and CSF1R) (bispecific antibody, human IgG1, kappa, L234A L235A)
heavy 1: B1 heavy 1
light 1: B1 light 1
heavy 2: not shown
light 2: QAGLTQPPSVSVAPGQTARITCGGNNIGSKSVHWYQQKPGQAPVLVVYGDSDRPSGIPERFSGSNSGNTATLTISRVEAGDEADYYCQVWDISSDHVVFGGGTQLTVLQRQVKPEAWLSKGPSPGPGRLQLVCHVSGFYPKPVWVMWMRGEQEQQGTQLGDILPNADWTWYLRATLDVADGEAAGLSCRVKHSSLEGQDIILYWRGSC
notes: Four distinct chains: Prolgolimab Fab arm (hole) and anti-CSF1R Fab-like arm with b2m/CD1b alpha3 dimerization unit (knob)
B3: antibody-like molecule 08-002 (binds CD20 and PD1) (bispecific antibody, human IgG1, kappa, L234A L235A)
heavy 1: EVQLVESGGGLVQPGGSLRLSCAASGYTFTSYNMHWVRQAPGKGLEWVGAIYPGNGDTSYNQKFKGRFTISVDKSKNTLYLQMNSLRAEDTAVYYCARVVYYSNSYWYFDVWGQGTLVTVSSASTKGPSVFPLAPSSKSTSGGTAALGCLVKDYFPEPVTVSWNSGALTSGVHTFPAVLQSSGLYSLSSVVTVPSSSLGTQTYICNVNHKPSNTKVDKRVEPKSCDKTHTCPPCPAPEAAGGPSVFLFPPKPKDTLYITREPEVTCVVVDVSHEDPEVKFNWYVDGVEVHNAKTKPREEQYNSTYRVVSVLTVLHQDWLNGKEYKCKVSNKALPAPIEKTISKAKGQPREPQVCTLPPSRDELTKNQVSLSCAVKGFYPSDIAVEWESNGQPENNYKTTPPVLDSDGSFFLVSKLTVDKSRWQQGNVFSCSVMHEALHNHYTQKSLSLSPGK
light 1: DIQMTQSPSSLSASVGDRVTITCRASSSVSYMHWYQQKPGKAPKPLIYAPSNLASGVPSRFSGSGSGTDFTLTISSLQPEDFATYYCQQWSFNPPTFGQGTKVEIKRTVAAPSVFIFPPSDEQLKSGTASVVCLLNNFYPREAKVQWKVDNALQSGNSQESVTEQDSKDSTYSLSSTLTLSKADYEKHKVYACEVTHQGLSSPVTKSFNRGEC
heavy 2: not shown
light 2: QPVLTQPLSVSVALGQTARITCGGNNIGSKNVHWYQQKPGQAPVLVIYRDSNRPSGIPERFSGSNSGNTATLTISRAQAGDEADYYCQVWDSSTAVFGTGTKLTVLQQRQVKPEAWLSKGPSPGPGRLQLVCHVSGFYPKPVWVMWMRGEQEQQGTQLGDILPNADWTWYLRATLDVADGEAAGLSCRVKHSSLEGQDIILYWRGSC
notes: Four distinct chains: Ocrelizumab Fab arm (hole) and Prolgolimab Fab-like arm with b2m/CD1b alpha3 dimerization unit (knob)
B4: antibody-like molecule 08-004 (binds CSF1R and PD1) (bispecific antibody, human IgG1, kappa, L234A L235A)
heavy 1: QVQLVESGGGLVRPGGSLRLSCAASEFTFDDYAMSWVRQAPGKGLEWVSAISWNGGSTNYADSVKGRFTISRDNAKNSLYLQMNSLRAEDTALYYCASTVEVAHRRLYKYLEVWGQGTLVTVSSASTKGPSVFPLAPSSKSTSGGTAALGCLVKDYFPEPVTVSWNSGALTSGVHTFPAVLQSSGLYSLSSVVTVPSSSLGTQTYICNVNHKPSNTKVDKRVEPKSCDKTHTCPPCPAPEAAGGPSVFLFPPKPKDTLYITREPEVTCVVVDVSHEDPEVKFNWYVDGVEVHNAKTKPREEQYNSTYRVVSVLTVLHQDWLNGKEYKCKVSNKALPAPIEKTISKAKGQPREPQVCTLPPSRDELTKNQVSLSCAVKGFYPSDIAVEWESNGQPENNYKTTPPVLDSDGSFFLVSKLTVDKSRWQQGNVFSCSVMHEALHNHYTQKSLSLSPGK
light 1: QAGLTQPPSVSVAPGQTARITCGGNNIGSKSVHWYQQKPGQAPVLVVYGDSDRPSGIPERFSGSNSGNTATLTISRVEAGDEADYYCQVWDISSDHVVFGGGTQLTVLRTVAAPSVFIFPPSDEQLKSGTASVVCLLNNFYPREAKVQWKVDNALQSGNSQESVTEQDSKDSTYSLSSTLTLSKADYEKHKVYACEVTHQGLSSPVTKSFNRGEC
heavy 2: not shown
light 2: B3 light 2
notes: Four distinct chains: anti-CSF1R Fab arm (hole) and Prolgolimab Fab-like arm with b2m/CD1b alpha3 dimerization unit (knob)

How the values were obtained:
[1] = target: T2, extracellular domain of the human PD-1 protein (hPD1ex-H6F) (human, UniProt Q15116 21-170); experiment: BLI (Octet RED 384), antibody-like molecule on ProA sensors, hPD1ex-H6F analyte 485.4 nM, 1:1 model
T2 construct: Made in CHO cells, molecular weight 20.6 kDa as printed; also called hPDlex-H6F
T2 sequence (Q15116 21-170 limits assumed, form in doubt): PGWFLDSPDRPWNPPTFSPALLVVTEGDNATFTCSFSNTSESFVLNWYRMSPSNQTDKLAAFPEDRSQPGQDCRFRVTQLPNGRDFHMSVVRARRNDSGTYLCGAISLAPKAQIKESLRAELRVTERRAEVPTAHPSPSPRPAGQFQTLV
Method: (§1) Experiments were carried out using a kinetic buffer solution (hereinafter referred to as 1×KB); volume fraction of added Tween 20 was 0.1%; mass fraction of added BSA (bovine serum albumin) was 0.1%; pH 7.4. Before the measurement, the ProA sensors were regenerated with a solution of 50 mM glycine and hydrochloric acid, pH 1.8 (5 seconds in the regenerating solution, 5 seconds in 1×KB, three repetitions).
(§2) In the case of the hPDlex-H6F and hCSF1R_His antigens, the Protein A (ProA) biosensors (ForteBio) were immersed in a solution with antibody-like molecules at a concentration of 10 µg/ml for 300 seconds to immobilize same. The baseline was recorded in 1×KB for 120 seconds. Sensors loaded with the antibody-like molecule were then immersed into wells containing a solution of the target antigen (analyte) in a kinetic buffer for 300 seconds. Measurements were performed for solutions with hPDlex-H6F analyte at concentrations of 10 µg/ml (485.4 nM), for solutions with hCSF1R_His analyte at concentrations of 10 µg/ml (174.2 nM). Complex dissociation in 1×KB was then detected for 600 seconds.
(§3) To obtain numerical values of kinetic constants (kon is the on/association rate constant, kdis is the dissociation rate constant, KD is the equilibrium dissociation constant or affinity constant), the resulting sensograms were processed according to the 1:1 interaction model using Global Fit (selection of one set of kon, kdis, KD constants to analyze several sensograms of different concentrations) of the ForteBio Octet Data Analysis 9.0 software.

[2] = target: T1, biotinylated peptide …; experiment: BLI (Octet RED 384), biotinylated CD20 peptide on SAX sensors, antibody-like molecule as analyte, 1:1 model, global fit
Method: as §1
In the case of biotinylated […], the peptide at a concentration of 2.5 μg/ml was immobilized on the surface of SAX sensors (High Precision Streptavidin (SAX) biosensors, ForteBio) for 300 seconds. The baseline was recorded in a 1×KB solution for 120 seconds. Sensors loaded with peptide were then immersed into wells containing the solution of antibody-like molecule (analyte) in 1×KB for 300 seconds. Measurements were performed for solutions with analyte (antibody-like molecule in case of CD20 peptide) at concentrations […] and 75 µg/ml. Complex dissociation was recorded in 1×KB for 60 seconds.
as §3

[3] = target: T3, extracellular domain of the human CSF1R protein (hCSF1R_His) (human, UniProt P07333 20-512); experiment: BLI (Octet RED 384), antibody-like molecule on ProA sensors, hCSF1R_His analyte 174.2 nM, 1:1 model
T3 construct: range 20-512; Made in CHO cells, molecular weight 57.4 kDa as printed; not shown: C-terminal His-tag and FLAG-tag
T3 sequence (P07333 20-512 limits assumed): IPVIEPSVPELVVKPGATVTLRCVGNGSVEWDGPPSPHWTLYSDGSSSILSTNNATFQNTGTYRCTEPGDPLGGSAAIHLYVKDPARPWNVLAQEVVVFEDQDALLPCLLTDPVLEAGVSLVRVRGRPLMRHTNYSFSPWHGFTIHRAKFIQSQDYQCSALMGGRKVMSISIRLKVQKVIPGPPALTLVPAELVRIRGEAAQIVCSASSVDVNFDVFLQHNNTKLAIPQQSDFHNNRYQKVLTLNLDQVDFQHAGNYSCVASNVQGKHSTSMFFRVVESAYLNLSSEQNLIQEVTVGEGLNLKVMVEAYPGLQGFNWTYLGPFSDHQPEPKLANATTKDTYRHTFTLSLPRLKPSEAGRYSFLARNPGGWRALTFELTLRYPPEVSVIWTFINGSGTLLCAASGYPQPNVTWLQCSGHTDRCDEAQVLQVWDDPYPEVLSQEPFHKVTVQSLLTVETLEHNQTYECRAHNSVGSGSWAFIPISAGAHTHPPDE
Method: as §1, §2, §3

Row | Binder | Kd [1] | koff [1] | kon [1] | Kd [2] | koff [2] | kon [2] | Kd [3] | koff [3] | kon [3]
1 | B1 | 15.9 nM | 0.000601 s⁻¹ | 37800 M⁻¹ s⁻¹ | 848 nM | 0.139 s⁻¹ | 164000 M⁻¹ s⁻¹ |  |  | 
2 | B2 | 12.4 nM | 0.000487 s⁻¹ | 39200 M⁻¹ s⁻¹ |  |  |  | 1.44 nM | 0.000238 s⁻¹ | 165000 M⁻¹ s⁻¹
3 | B3 | 16.9 nM | 0.000658 s⁻¹ | 39000 M⁻¹ s⁻¹ | 845 nM | 0.0986 s⁻¹ | 117000 M⁻¹ s⁻¹ |  |  | 
4 | B4 | 13.7 nM | 0.000568 s⁻¹ | 41400 M⁻¹ s⁻¹ |  |  |  | 2.23 nM | 0.000443 s⁻¹ | 199000 M⁻¹ s⁻¹
